This is an account of results in article PMC9482650, “Quantitative fragmentomics allow affinity mapping of interactomes” (Nature Communications, 2022).

In general, pKd refers to the negative decadic logarithm of the Kd, by convention in mol/L.

Common to all, as to assay: holdup assay
Holding throughout (parameters): key: below the threshold = too weak to quantify, mostly under pKd 3.1 to 4

Test [1] has as its target T1, LIN7B, Q9HAP6.
T1 sequence (Q9HAP6 88-185, limits assumed, looked up): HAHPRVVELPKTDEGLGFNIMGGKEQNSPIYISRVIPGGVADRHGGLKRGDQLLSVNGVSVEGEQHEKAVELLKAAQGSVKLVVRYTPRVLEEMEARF

Test [2] addresses T2, ARHGEF11, O15085.
T2 sequence (O15085 42-136, limits assumed, looked up): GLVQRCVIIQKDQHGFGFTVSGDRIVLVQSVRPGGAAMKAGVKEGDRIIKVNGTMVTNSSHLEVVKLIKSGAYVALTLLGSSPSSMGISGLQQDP

Test [3] addresses T3, HTRA3, P83110.
T3 sequence (P83110 354-453, limits assumed, looked up): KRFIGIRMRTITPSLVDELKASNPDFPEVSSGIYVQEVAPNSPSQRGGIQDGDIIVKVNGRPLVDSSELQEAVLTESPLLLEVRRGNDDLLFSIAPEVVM

The target of test [4] is CASK, O14936.
Chain of CASK, O14936 (O14936 487-570): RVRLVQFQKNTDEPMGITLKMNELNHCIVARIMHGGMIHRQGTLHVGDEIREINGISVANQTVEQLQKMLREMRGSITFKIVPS
The target of test [5] is T4, GRIP1_4, Q9Y3R0.
T4 sequence (Q9Y3R0 467-571, limits assumed, looked up): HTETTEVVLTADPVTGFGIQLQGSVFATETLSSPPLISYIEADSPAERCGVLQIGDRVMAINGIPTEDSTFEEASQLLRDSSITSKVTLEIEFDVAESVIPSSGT

The target of test [6] is T5, TX1BP3, O14907.
T5 sequence (O14907 10-122, limits assumed, looked up): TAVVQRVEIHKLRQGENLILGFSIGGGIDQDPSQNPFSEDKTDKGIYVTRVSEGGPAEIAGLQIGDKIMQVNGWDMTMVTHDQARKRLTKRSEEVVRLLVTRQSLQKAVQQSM

The target in test [7] is T6, DFNB31_1, Q9P202.
T6 sequence (Q9P202 135-233, limits assumed, looked up): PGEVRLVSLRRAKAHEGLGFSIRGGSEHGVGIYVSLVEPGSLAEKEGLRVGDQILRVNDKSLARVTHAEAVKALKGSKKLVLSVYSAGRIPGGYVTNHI

In test [8] the target is SCRIB_1, Q14160.
Chain of SCRIB_1, Q14160 (Q14160 718-814): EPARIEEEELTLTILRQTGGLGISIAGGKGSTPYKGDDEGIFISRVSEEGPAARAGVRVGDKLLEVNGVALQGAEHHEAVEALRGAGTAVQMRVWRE
Test [9] has as its target T7, RAPGEF6, Q8TEU7.
T7 sequence (Q8TEU7 525-625, limits assumed, looked up): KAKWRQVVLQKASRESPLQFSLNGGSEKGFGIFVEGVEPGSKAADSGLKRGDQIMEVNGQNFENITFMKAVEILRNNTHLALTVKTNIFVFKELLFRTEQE

The target in test [10] is Inadl_6, Q8NI35.
Chain of Inadl_6, Q8NI35 (Q8NI35 1058-1167): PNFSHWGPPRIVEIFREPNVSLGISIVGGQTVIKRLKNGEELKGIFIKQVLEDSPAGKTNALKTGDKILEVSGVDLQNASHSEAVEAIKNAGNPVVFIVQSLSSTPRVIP
For test [11], the target named is T8, PDZRN3_1, Q9UPQ7.
T8 sequence (Q9UPQ7 244-349, limits assumed, looked up): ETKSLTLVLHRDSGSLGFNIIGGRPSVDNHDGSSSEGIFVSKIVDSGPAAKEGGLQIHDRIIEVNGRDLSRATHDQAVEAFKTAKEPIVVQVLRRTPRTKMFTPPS

Test [12] addresses Inadl_1, Q8NI35.
Test [13] has as its target T9, DFNB31_3, Q9P202.
T9 sequence (Q9P202 811-907, limits assumed, looked up): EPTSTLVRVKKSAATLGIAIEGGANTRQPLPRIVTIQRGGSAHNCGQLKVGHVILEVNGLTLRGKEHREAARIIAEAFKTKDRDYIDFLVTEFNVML

Test [14] addresses MAGI2_5, Q86UL8.
In test [15] the target is FRMPD2_1, Q68DX3.
Chain of FRMPD2_1, Q68DX3 (Q68DX3 770-861): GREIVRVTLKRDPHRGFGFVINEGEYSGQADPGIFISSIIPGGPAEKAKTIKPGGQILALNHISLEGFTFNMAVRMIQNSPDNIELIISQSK
For test [16], the target named is GORASP1, Q9BQQ3.
Chain of GORASP1, Q9BQQ3 (Q9BQQ3 1-208): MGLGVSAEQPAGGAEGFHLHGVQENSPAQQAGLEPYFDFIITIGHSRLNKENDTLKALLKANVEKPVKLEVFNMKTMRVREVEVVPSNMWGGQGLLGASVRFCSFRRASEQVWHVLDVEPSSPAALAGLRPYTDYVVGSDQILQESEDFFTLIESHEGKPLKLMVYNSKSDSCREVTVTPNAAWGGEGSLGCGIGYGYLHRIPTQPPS
In test [17] the target is T10, GRIP1_5, Q9Y3R0.
T10 sequence (Q9Y3R0 568-668, limits assumed, looked up): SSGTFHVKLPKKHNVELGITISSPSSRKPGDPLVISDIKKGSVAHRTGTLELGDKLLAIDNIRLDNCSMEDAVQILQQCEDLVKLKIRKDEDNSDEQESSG

Test [18] deals with DLG1_3, Q12959.
Chain of DLG1_3, Q12959 (Q12959 457-571): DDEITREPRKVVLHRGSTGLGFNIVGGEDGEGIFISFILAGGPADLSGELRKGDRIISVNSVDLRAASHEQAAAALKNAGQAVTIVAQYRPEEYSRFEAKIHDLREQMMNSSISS
Test [19] has as its target GRIP2_6, Q9C0E4.
The target in test [20] is MAST2, Q6P0Q8.
Chain of MAST2, Q6P0Q8 (Q6P0Q8 1099-1202): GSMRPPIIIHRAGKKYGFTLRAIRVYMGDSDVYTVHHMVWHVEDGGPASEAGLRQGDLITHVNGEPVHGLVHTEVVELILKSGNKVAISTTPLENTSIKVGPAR
The target of test [21] is T11, SNTB1, Q13884.
T11 sequence (Q13884 107-205, limits assumed, looked up): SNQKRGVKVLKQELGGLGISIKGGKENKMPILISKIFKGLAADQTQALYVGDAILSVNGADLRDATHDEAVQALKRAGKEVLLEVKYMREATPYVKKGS

For test [22], the target named is GIPC2, Q8TF65.
Chain of GIPC2, Q8TF65 (Q8TF65 112-203): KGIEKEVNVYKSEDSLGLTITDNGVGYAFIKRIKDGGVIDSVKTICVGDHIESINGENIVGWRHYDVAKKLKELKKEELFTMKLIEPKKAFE
Test [23] deals with T12, MPP7, Q5T2T1.
T12 sequence (Q5T2T1 134-230, limits assumed, looked up): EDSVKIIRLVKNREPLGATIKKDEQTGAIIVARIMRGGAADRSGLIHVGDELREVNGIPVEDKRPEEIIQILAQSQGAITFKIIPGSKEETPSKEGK

The target in test [24] is T13, APBA2_1, Q99767.
T13 sequence (Q99767 563-664, limits assumed, looked up): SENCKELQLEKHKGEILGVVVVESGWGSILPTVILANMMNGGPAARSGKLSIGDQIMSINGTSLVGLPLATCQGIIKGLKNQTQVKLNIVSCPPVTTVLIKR

The mark [25] stands for this setting: plain residues with an end cap or a label only (N-terminal biotin on a linker: ttds).
The mark [26] stands for this setting: plain residues with an end cap or a label only (N-terminal biotin on a linker: ahx).
Where [27] appears, read: plain residues with an end cap or a label only (N-terminal biotin on a linker: ado-ado, ttds).

Chain of MAGI2_5, Q86UL8 (Q86UL8 915-1017): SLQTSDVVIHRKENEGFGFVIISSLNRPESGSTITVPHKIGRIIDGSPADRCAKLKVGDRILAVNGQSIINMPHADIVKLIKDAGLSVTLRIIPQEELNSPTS
Chain of GRIP2_6, Q9C0E4 (Q9C0E4 648-740): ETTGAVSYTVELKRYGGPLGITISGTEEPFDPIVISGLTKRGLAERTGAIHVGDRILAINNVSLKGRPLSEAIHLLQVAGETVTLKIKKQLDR
Chain of Inadl_1, Q8NI35 (Q8NI35 113-229): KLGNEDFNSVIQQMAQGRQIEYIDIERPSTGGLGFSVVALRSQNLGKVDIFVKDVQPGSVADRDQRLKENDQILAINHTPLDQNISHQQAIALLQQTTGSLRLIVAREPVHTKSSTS

For PPRQRSETQV [HPV82-E6, Q9IR59], the pKd entry in [1] (setting [25]) is “below the threshold”; in [2] (setting [25]), 3.74; in [3] (setting [25]), “below the threshold”; in [4] (setting [25]) it was “below the threshold”; in [5] (setting [25]), “below the threshold”; in test [6] (setting [25]) it was 4.14. Moreover, the pKd entry in test [7] (setting [25]) is “below the threshold”; in [8] (setting [25]) it was 4.12; in test [9] (setting [25]), “below the threshold”; in test [10] (setting [25]), “below the threshold”; in test [11] (setting [25]) it was 3.81; in test [12] (setting [25]), “below the threshold”. For the same molecule, the pKd result in [13] (setting [25]) is “below the threshold”; in test [14] (setting [25]), 4; in test [15] (setting [25]), 3.5; in test [16] (setting [25]), “below the threshold”; in test [17] (setting [25]), “below the threshold”; in test [18] (setting [25]) it was 3.99. Also, the pKd result in test [19] (setting [25]) was “below the threshold”; in [20] (setting [25]), 5.18; in test [21] (setting [25]) it was 4.05; in test [22] (setting [25]), “below the threshold”; in test [23] (setting [25]) it was “below the threshold”; in test [24] (setting [25]), “below the threshold”.
Regarding SSIDLWETAL [SLC15A5, A6NIM6], the pKd was 4.92 in test [1] (setting [25]); 5.24 in [2] (setting [25]); “below the threshold” in test [3] (setting [25]); “below the threshold” in test [4] (setting [25]); “below the threshold” in test [5] (setting [25]); 5.24 in [6] (setting [25]). Further, the pKd was 4.97 in [7] (setting [25]); 5.76 in [8] (setting [25]); “below the threshold” in test [9] (setting [25]); 5.69 in test [10] (setting [25]); 5.87 in test [11] (setting [25]); “below the threshold” in [12] (setting [25]). The pKd entry in test [13] (setting [25]) was “below the threshold”; in test [14] (setting [25]) it was 4.97; in test [15] (setting [25]), “below the threshold”; in test [16] (setting [25]), 4.02; in test [17] (setting [25]), “below the threshold”; in test [18] (setting [25]), 4.22. Also, the negative logarithm of the Kd (pKd) result is “below the threshold” in test [19] (setting [25]); 5.44 in test [20] (setting [25]); 5.41 in test [21] (setting [25]); 4.04 in [22] (setting [25]); 3.81 in test [23] (setting [25]); “below the threshold” in test [24] (setting [25]).
For SKKNELFSNL [NHERF1, O14745], the pKd entry in [1] (setting [26]), in [2] (setting [26]), in test [3] (setting [26]), in test [4] (setting [26]), in [5] (setting [26]) and in test [6] (setting [26]) was “below the threshold” in each case. For the same molecule, the pKd result in test [7] (setting [26]), in test [8] (setting [26]), in [9] (setting [26]), in [10] (setting [26]), in [11] (setting [26]) and in test [12] (setting [26]) was “below the threshold” throughout. In addition, the pKd result in test [13] (setting [26]), in test [14] (setting [26]), in test [15] (setting [26]), in test [16] (setting [26]), in test [17] (setting [26]) and in [18] (setting [26]) was “below the threshold” throughout. The pKd result in [19] (setting [26]) is “below the threshold”; in test [20] (setting [26]), 4.5; in test [21] (setting [26]), “below the threshold”; in test [22] (setting [26]) it was “below the threshold”; in test [23] (setting [26]), “below the threshold”; in test [24] (setting [26]), “below the threshold”.
As for SNAKAVETDV [KCNA4, P22459], the pKd entry in [1] (setting [27]) is “below the threshold”; in [2] (setting [27]), 3.59; in test [3] (setting [27]), “below the threshold”; in test [4] (setting [27]), “below the threshold”; in test [5] (setting [27]) it was “below the threshold”; in [6] (setting [27]), 4.49. Also, the negative logarithm of the Kd (pKd) result in [7] (setting [27]), in test [8] (setting [27]), in test [9] (setting [27]), in test [10] (setting [27]), in test [11] (setting [27]) and in [12] (setting [27]) was “below the threshold” in each case. The pKd result in [13] (setting [27]), in test [14] (setting [27]), in [15] (setting [27]), in [16] (setting [27]), in [17] (setting [27]) and in [18] (setting [27]) was “below the threshold” throughout. The pKd entry in [19] (setting [27]) was “below the threshold”; in test [20] (setting [27]), 5.18; in [21] (setting [27]), 4.71; in [22] (setting [27]), “below the threshold”; in test [23] (setting [27]), “below the threshold”; in test [24] (setting [27]) it was “below the threshold”.
